Tests used:
[1] = system: OVCAR-3 cells; experiment: Cell killing assay, cell viability by CellTiter-Glo; format: cell-based, human; settings: 5 days at 37°C; compared to Antibody 1-DXd, FIG. 11
Protocol: OVCAR-3 cells were seeded into a 96-well plate at a density of 5,000 cells per well and cultured overnight at 37°C. Antibody 1-DXd, Mutant 22-DXd, Mutant 23-DXd, Mutant 37-DXd, Mutant 38-DXd, Mutant 39-DXd, and Mutant 40-DXd were serially diluted and added to the 96-well plate containing OVCAR-3 cells, followed by incubation at 37°C for 5 days. Cell viability was measured using CellTiter-Glo (Promega) to evaluate the killing effects of the antibody-drug conjugates.

[2] = Size-exclusion chromatography analysis of aggregate formation; format: physicochemical; settings: DXd conjugates, FIG. 7 and FIG. 9
Protocol: Size-exclusion chromatography analysis was performed. […]
Based on Antibody 3 and Antibody 4, amino acid residues with different properties were inserted between the cysteine residues at positions 4 and 5. Specifically: nonpolar amino acids, exemplified by the insertion of two alanine residues (A); polar uncharged amino acids, exemplified by the insertion of two serine residues (S); basic amino acids, exemplified by the insertion of two lysine residues (K); and acidic amino acids, exemplified by the insertion of two glutamic acid residues (E) or two aspartic acid residues (D), as shown in Table 5. The different mutants were expressed and purified. […]
The different mutants listed in Table 6 were expressed and purified. […] The thermal stability of these ten heavy-chain antibodies was further evaluated using dynamic light scattering (DLS). A DLS (Wyatt) instrument was used to monitor light scattering of the antibodies during heating from 25 °C to 85 °C, thereby determining the aggregation temperature (Tagg) of the antibodies.
VHH1 was separately linked to the engineered human IgG2 Fc or the engineered human IgG4 Fc shown in Table 7 to construct heavy-chain antibodies. After expression and purification, Mutant 37, Mutant 38, Mutant 39, and Mutant 40 were obtained.

[3] = Hydrophobic interaction chromatography and LC-MS analysis of drug loading; format: physicochemical; settings: after TCEP reduction and conjugation with maleimide-GGFG-DXd
Protocol: Antibody 1 and Antibody 2 were separately incubated with TCEP (Sigma) to reduce and open the disulfide bonds between the two heavy chains, followed by the addition of maleimide-GGFG-DXd (MedChemExpress) for conjugation. The conjugates were then purified using a desalting column to remove excess small-molecule drug.

Row | Molecule | killing effect on OVCAR-3 cells [1] | size-exclusion chromatography peak profile after conjugation [2] | drug-to-antibody ratio (DAR) value [3]
1 | Mutant 37-DXd (conjugate) heavy: QVQLVESGGGLVQPGGSLRLSCAASGITFPVNAYGWYRQAPGKQRDLVAIISAGGTTNYADSVKGRFTISRDNSKNTLYLQMNSLRAEDTAVYYCYLQRRIGMLRDYWGQGTQVTVSSERKCDDCVECPPCPERKCCVECPPCPAPPVAGPSVFLFPPKPKDTLMISRTPEVTCVVVDVSHEDPEVQFNWYVDGVEVHNAKTKPREEQFNSTFRVVSVLTVVHQDWLNGKEYKCKVSNKGLPAPIEKTISKTKGQPREPQVYTLPPSREEMTKNQVSLTCLVKGFYPSDIAVEWESNGQPENNYKTTPPMLDSDGSFFLYSKLTVDKSRWQQGNVFSCSVMHEALHNHYTQKSLSLSPGK | significantly enhanced killing effect | normal | 8
2 | Mutant 38-DXd (conjugate) heavy: QVQLVESGGGLVQPGGSLRLSCAASGITFPVNAYGWYRQAPGKQRDLVAIISAGGTTNYADSVKGRFTISRDNSKNTLYLQMNSLRAEDTAVYYCYLQRRIGMLRDYWGQGTQVTVSSERKCEECVECPPCPERKCCVECPPCPAPPVAGPSVFLFPPKPKDTLMISRTPEVTCVVVDVSHEDPEVQFNWYVDGVEVHNAKTKPREEQFNSTFRVVSVLTVVHQDWLNGKEYKCKVSNKGLPAPIEKTISKTKGQPREPQVYTLPPSREEMTKNQVSLTCLVKGFYPSDIAVEWESNGQPENNYKTTPPMLDSDGSFFLYSKLTVDKSRWQQGNVFSCSVMHEALHNHYTQKSLSLSPGK | significantly enhanced killing effect | normal | 8
